Assay results taken from IntAct's records for PubMed 15611164.

B1: Ankyrin repeat-containing protein YAR1 (Saccharomyces cerevisiae), P46683 (parent)
chain: MGLHSEPLDQEDQDTIILDARAGDLDSLKDIFTTLVSPELLSTCKESESDSTALHMAAANGHIETVRYILETVSRANSAEDLKAFVNEVNKTGNTALHWASLNGKLDVVKLLCDEYEADPFIRNKFGHDAIFEAENSGKEEVETYFLKKYDVEPEDDEEDTQTEGKNSVQITKGTEIEQVTKEATEALREETEKLNINKD
partner: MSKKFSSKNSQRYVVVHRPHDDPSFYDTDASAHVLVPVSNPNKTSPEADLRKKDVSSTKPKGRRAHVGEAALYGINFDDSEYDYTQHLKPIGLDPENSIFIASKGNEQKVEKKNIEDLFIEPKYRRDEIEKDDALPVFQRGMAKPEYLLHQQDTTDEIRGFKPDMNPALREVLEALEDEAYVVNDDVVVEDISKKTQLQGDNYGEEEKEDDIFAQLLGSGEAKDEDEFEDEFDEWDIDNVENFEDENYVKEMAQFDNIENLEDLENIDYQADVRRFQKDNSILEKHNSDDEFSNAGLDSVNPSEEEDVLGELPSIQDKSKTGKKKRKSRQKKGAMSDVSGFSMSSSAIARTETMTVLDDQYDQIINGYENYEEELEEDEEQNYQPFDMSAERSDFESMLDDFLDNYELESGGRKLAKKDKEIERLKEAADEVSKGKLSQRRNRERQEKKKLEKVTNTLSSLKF

Variants of: B1
Details: with ltv1_yeast LTV1, P34078

effect of a mutation on the interaction	Variant
decreasing interaction	K125A
decreasing interaction	K91A
